System: Bacillus subtilis
Test: cleaved RNA product abundance (RNA/gDNA barcode ratio) relative to median wild-type variant (ratio to wild type); higher = more accumulation of the downstream cleavage product
Outline: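 Oligos with a 9% error rate were used to build barcoded, mutagenized RNase Y cleavage-site windows within truncated aprE or tetM reporter mRNAs, which were integrated into the B. subtilis chromosome. Cultures were grown in LB at 37°C between OD600 0.0003 and 0.3. Cleaved RNA was gel-selected, reverse transcribed and barcode-sequenced, as were genomic DNA barcodes, and UMIs were collapsed. Cleaved product abundance is the scaled RNA:gDNA barcode ratio, with the median construct carrying the unmutated site as reference.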

[1] = experiment (reporter, strain, medium): exp 2b: truncated aprE reporter, strain BJT200, cleavage site: cggR-gapA (positions -7 to +36 mutated)
[2] = experiment (reporter, strain, medium): exp 4a: truncated aprE reporter, strain BJT201 with 2% xylose (RNase J1 expressed), cleavage site: cggR-gapA (positions -7 to +36 mutated)
[3] = experiment (reporter, strain, medium): exp 8a: truncated aprE reporter, strain BJT201 with 2% xylose (RNase J1 expressed), cleavage site: glnRA (positions -5 to +31 mutated)

Row | Sequence | cleaved RNA product abundance [1] | cleaved RNA product abundance [2] | cleaved RNA product abundance [3] | also measured
1 | ACAGACGAAGGAGCCGCAAAGAAGTTAATAAGGGATGAATAATCCTTCAATATAAATATCTCTCACTTATTTAAA | 0.185 | 0.237 | – | –
2 | ACAGACGAAGGAGCCGCAAAGAAGTTATTACGGTATGAATAATCCCTCAATATAAATATCTCTCACTTATTTAAA | – | 0.141 | – | –
3 | ACAGACGAAGGAGCCGCAAAGAAGTTATTAAGGGATGAATTATCCCTCATTATAAATATCTCTCACTTATTTAAA | – | 0.32 | – | –
4 | CGACATGTCCCGCTTCTTTCATTAATCCGTTCGCAACTGTTTTGCTATAAACATTTACCTTTTAAGAGGAGGAAT | – | – | 0.122 | –
5 | ACAGACGAAGGAGCCGCAAAGAAGTTATTAAGGGATGTATAATCCCTCAGTATAAATATCTCTCACTTATTTAAA | 0.218 | 0.237 | – | –
6 | ACAGACGAAGGAGCCGCAAAGAAGTTATTAAGGCATGATTAATCCCTCAATATAAATATCTCTCACTTATTTAAA | 0.125 | 0.15 | – | –
7 | ACAGACGAAGGAGCCGCAAAGAACTTATTAAGGGATGAATAATCACTCAATATAAATATCTCTCACTTATTTAAA | 0.102 | 0.152 | – | –
8 | ACAGACGAAGGAGCCGCAAAGAAGTTATTAAGGGATAAATAATCCCTCAAAATAAATATCTCTCACTTATTTAAA | 0.293 | 0.241 | – | –
9 | CGACATGTCCCGCTTCTTTCATTAATCCGTTAGCAACTGTTTTGCTATATAAATTAACCTTTTAAGAGGAGGAAT | – | – | 1.01 | –
10 | CGACATGTCCCGCTTCTTTCATTAATTCGTTAGCAACTGTTTTGCTATATACATTTGCCTTTTAAGAGGAGGAAT | – | – | 0.536 | –
11 | ACAGACGAAGGAGCCGCAAAGAAGTTATTAAGCGATTAATAATCCCTCAATATAAATATCTCTCACTTATTTAAA | 0.0842 | 0.0983 | – | –
12 | ACAGACGAAGGAGCCGCATAGAAGTTATTAAGGGATGAATAATCCATCAATATAAATATCTCTCACTTATTTAAA | 0.112 | 0.245 | – | –
13 | ACAGACGAAGGAGCCGCAAAGAAGTTATTCAGGGATGAATAATCCGTCAATATAAATATCTCTCACTTATTTAAA | 0.117 | – | – | –
14 | CGACATGTCCCGCTTCTTTCATTACTCCGTTAGCAACTGTTTTGCTATATGCATTTACCTTTTAAGAGGAGGAAT | – | – | 0.234 | –
15 | ACAGACGAAGGAGCCGCAAATGAGTTATTAAAGGATGAATAATCCCTCAATATAAATATCTCTCACTTATTTAAA | 0.181 | – | – | –
16 | CGACATGTCCCGCTTCTTTCATTAATCCGTTAGCAACTGTATTGCTATATACATTTACCCTTTAAGAGGAGGAAT | – | – | 1.1 | –
17 | CGACATGTCCCGCTTCTTTCATTAATCCCTTAGCAACTGTTTTGCTATATTCATTTACCTTTTAAGAGGAGGAAT | – | – | 0.153 | –
18 | ACAGACGAAGGAGCCGCAAAGAAGGTATTAAGGAATGAATAATCCCTCAATATAAATATCTCTCACTTATTTAAA | 0.145 | 0.194 | – | –
19 | ACAGACGAAGGAGCCGCAAAGAAATTATTAGGGGATGAATAATCCCTCAATATAAATATCTCTCACTTATTTAAA | – | 0.586 | – | –
20 | ACAGACGAAGGAGCCGCAAAGAAGTTATTAAGGGATGAATAATCCTTCAATATAAATTTCTCTCACTTATTTAAA | – | 0.346 | – | –
21 | ACAGACGAAGGAGCCGCAAAGAAGTTATTAAGGGATGAATAATCGCTAAATATAAATATCTCTCACTTATTTAAA | 0.0982 | – | – | –
22 | CGACATGTCCCGCTTCTTTCATTAATCCGTTAGCAACAGTTTTGCTATATACATTTAGCTTTTAAGAGGAGGAAT | – | – | 0.489 | –
23 | CGACATGTCCCGCTTCTTTCATTAATCCATTATCAACTTTTTTGCTATATACATTTACCTTTTAAGAGGAGGAAT | – | – | 0.311 | –
24 | CGACATGTCCCGCTTCTTTCATTAATACGTTAGCAACTGTTTTGCTATATACATTTACCATTTAAGAGGAGGAAT | – | – | 0.353 | –
25 | ACAGACGAAGGAGCCGCAAAGAAGTTATTAAGGGATGAATATTCCCTAAATATAAATATCTCTCACTTATTTAAA | – | 0.462 | – | –
26 | ACAGACGAAGGAGCCGCAAAGAAGTTATTAAGGGATGAATAATCCCTCAATAGAAATATCTCTCACTTATTTAAA | 0.164 | 0.111 | – | cleaved RNA product abundance (experiment (reporter, strain, medium): exp 6: tetM reporter, strain 168, cleavage site: cggR-gapA (positions -7 to +36 mutated)): 0.165
27 | ACAGACGAAGGAGCCGCAAACAAGTTATTAAGGGAAGAATAATCCCTCAATATAAATATCTCTCACTTATTTAAA | – | 0.558 | – | –
28 | CGACATGTCCCGCTTCTTTCATTAATCCGTTAGGAACTGTTTTGCTATACACATTTACCTTTTAAGAGGAGGAAT | – | – | 0.245 | –
29 | ACAGACGAAGGAGCCGCAAAGAAATTATTAAGGGACGAATAATCCCTCAATATAAATATCTCTCACTTATTTAAA | 0.392 | 0.596 | – | –
